This passage reports stoichiometry N results from article PMC9768917.

The target of experiment [1] is HALO-FhM28B (Fasciola hepatica M28B metalloprotease, wild type, with N-terminal His-Strep-HALO tag) (Fasciola hepatica). As to the kind of experiment: SEC; final purification step on a Superose 6 column, 20 mM MOPS, 150 mM NaCl, pH 7.4; elution peak compared with the expected dimeric mass. A general note: In gel filtration, larger molecules generally elute earlier.
Experiment [2] deals with HALO-FhM28B (E413M) (Fasciola hepatica). The experiment is described as above.

In general, stoichiometry N refers to the number of molecules, sites or subunits per partner or assembly. Substance “HALO-FhM28B (Fasciola hepatica M28B metalloprotease, wild type, with N-terminal His-Strep-HALO tag) (enzyme)” returned a stoichiometry N in experiment [1] of 2.
HALO-FhM28B (E413M) (enzyme) gave a stoichiometry N in experiment [2] of 2.
